The target in the test is T1, Flag-tagged EBNA3C 366-620 (Epstein-Barr virus, UniProt P03204 366-620).
T1 construct: also called pA3F-EBNA3C 366–620; EBNA3C 366-620aa; source: Saos-2, transfected, in lysate
T1 sequence: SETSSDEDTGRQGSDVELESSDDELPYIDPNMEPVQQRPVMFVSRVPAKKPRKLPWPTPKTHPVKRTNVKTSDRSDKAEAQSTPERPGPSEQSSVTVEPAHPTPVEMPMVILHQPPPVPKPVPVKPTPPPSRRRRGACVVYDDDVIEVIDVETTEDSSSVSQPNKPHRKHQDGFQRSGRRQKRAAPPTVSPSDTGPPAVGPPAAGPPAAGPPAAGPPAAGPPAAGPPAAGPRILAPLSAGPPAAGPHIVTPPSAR
Put plainly: co-IP; Saos-2 cells co-transfected, lysed 48 h later in RIPA buffer (1% NP-40, 10 mM Tris pH 8.0, 2 mM EDTA, 150 mM NaCl); immunoprecipitation with 1 ug anti-Flag antibody, overnight at 4 °C; western blot with anti-Flag and anti-Myc. The following applies: partners not purified.

B1: Myc-tagged full-length RASSF1A (Ras association domain family isoform 1A) (natural protein, human, UniProt Q9NS23-2 1-340, looked up)
chain: MSGEPELIELRELAPAGRAGKGRTRLERANALRIARGTACNPTRQLVPGRGHRFQPAGPATHTWCDLCGDFIWGVVRKGLQCAHCKFTCHYRCRALVCLDCCGPRDLGWEPAVERDTNVDEPVEWETPDLSQAEIEQKIKEYNAQINSNLFMSLNKDGSYTGFIKVQLKLVRPVSVPSSKKPPSLQDARRGPGRGTSVRRRTSFYLPKDAVKHLHVLSRTRAREVIEALLRKFLVVDDPRKFALFERAERHGQVYLRKLLDDEQPLRLRLLAGPSDKALSFVLKENDSGEVNWDAFSMPELHNFLRILQREEEEHLRQILQKYSYCRQKIQEALHACPLG
notes: RASSF1A (Ras association domain family isoform 1A), full length, amplified from total RNA by RT-PCR and cloned into pA3M; also called Myc-RASSF1A; pA3M-RASSF1A; source: Saos-2, transfected, in lysate
As to B1, the “signal relative to EBNA3C residues 1-365” value was roughly 50%.

These data come from paper PMC6336319, “EBNA3C facilitates RASSF1A downregulation through ubiquitin-mediated degradation and promoter hypermethylation to drive B-cell proliferation” (PLoS Pathogens, 2019).
